{"source": "paper PMC8162889", "origin": "cited, not measured here", "target": "EphA2 ECD (Homo sapiens) (UniProt P29317)", "sequence (P29317 24-537)": "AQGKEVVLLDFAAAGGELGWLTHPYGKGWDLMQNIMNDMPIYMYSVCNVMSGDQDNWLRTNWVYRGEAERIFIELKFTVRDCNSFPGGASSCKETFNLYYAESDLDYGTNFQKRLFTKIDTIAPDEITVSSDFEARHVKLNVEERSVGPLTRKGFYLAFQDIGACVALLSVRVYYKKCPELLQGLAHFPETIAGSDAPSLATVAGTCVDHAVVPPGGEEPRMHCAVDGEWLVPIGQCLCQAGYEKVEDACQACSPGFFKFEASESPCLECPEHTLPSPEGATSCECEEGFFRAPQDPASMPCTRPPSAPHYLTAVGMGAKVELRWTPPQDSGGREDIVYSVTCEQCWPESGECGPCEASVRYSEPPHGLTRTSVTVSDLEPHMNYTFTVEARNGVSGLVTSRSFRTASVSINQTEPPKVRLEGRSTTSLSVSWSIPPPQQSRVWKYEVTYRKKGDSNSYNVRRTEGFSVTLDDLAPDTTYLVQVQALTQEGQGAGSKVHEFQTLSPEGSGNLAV", "assay": "MST", "note": "pKd: −log10 of the molar value."}
{"substance": "Progranulin (from UniProt P28799)", "values": [{"measurement": "pKd", "value": 8.92}]}
